Six molecules from PMC13200811 (Cell, 2025) can be followed below.

Numbering of substitutions follows the chain as printed. Numbers in names are those of the source. Where two headings read alike, the source gives them in different places.

Series [1] concerns the target BCL-wΔNΔC (aa 40-156; α2-α8) (human) (UniProt Q92843). Put plainly: SEC. (In general: SEC sorts molecules by how far they enter the pores of the column.)
Series [2] concerns the target BCL-wΔN (aa 40-193; α2-α9) (human) (UniProt Q92843). Put plainly: SEC.
Series [3] deals with T1, full-length monomeric BCL-w (aa 1-193) (human), Q92843.
T1 chain: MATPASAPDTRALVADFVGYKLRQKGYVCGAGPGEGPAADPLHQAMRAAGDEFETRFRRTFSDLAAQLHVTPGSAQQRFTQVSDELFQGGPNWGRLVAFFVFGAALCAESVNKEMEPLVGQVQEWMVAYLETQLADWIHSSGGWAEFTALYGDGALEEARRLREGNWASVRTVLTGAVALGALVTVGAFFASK
Description: SEC-MALS. To be noted: remark: other sources report otherwise.

The target of series [4] is T1, full-length monomeric BCL-w (aa 1-193) …. Description: SEC-SAXS. The note with it: remark: other sources report otherwise.
Series [5] concerns the molecule itself. Description: SEC.
Series [6] deals with the molecule itself. Put plainly: SEC. This is another data set of the same source.

As for “BCL-wΔNΔC (aa 40-156; α2-α8) (from UniProt Q92843 40-156) (domain or fragment)”, in series [1], the stoichiometry N (in general, a count of units in the complex or per binding partner) worked out at 2. “BCL-wΔN (aa 40-193; α2-α9) (from UniProt Q92843 40-193) (domain or fragment)” yielded a stoichiometry N in series [2] of 2.

B1: full-length monomeric BCL-w (aa 1-193), Q92843 1-193 (natural protein)
chain: T1 chain
Consider B1, for which the stoichiometry N in series [3] and in series [4] was 2 each time.

B2: BCL-w G94E (full length) (natural protein, human, UniProt Q92843 1-193, looked up)
chain: T1 chain with G94E
For the molecule B2, the “stoichiometry N” value in series [5] came out at 2.

B3: GFP-BCL-w α1-α8 (aa 1-156) (domain or fragment, human, UniProt Q92843 1-156, looked up)
chain: MATPASAPDTRALVADFVGYKLRQKGYVCGAGPGEGPAADPLHQAMRAAGDEFETRFRRTFSDLAAQLHVTPGSAQQRFTQVSDELFQGGPNWGRLVAFFVFGAALCAESVNKEMEPLVGQVQEWMVAYLETQLADWIHSSGGWAEFTALYGDGAL
Turning to B3, the “stoichiometry N” value in series [6] came out at 2.

B4: BCL-wΔC (aa 1-156; α1-α8) (domain or fragment, human, UniProt Q92843 1-156, looked up)
chain: B3 chain
B4: the “stoichiometry N” value in series [5] is 2.
